{"source": "paper PMC5493759", "about": "“Neurovascular EGFL7 regulates adult neurogenesis in the subventricular zone and thereby affects olfactory perception” (Nature Communications, 2017)", "binders": {"B1": {"name": "Flag-tagged EGFL7 (epidermal growth factor-like protein 7) (natural protein, UniProt Q9QXT5 22-275, looked up)", "chain": "EHVYRPSRRVCTVGISGGSISETFVQRVYQPYLTTCDGHRACSTYRTIYRTAYRRSPGVTPARPRYACCPGWKRTSGLPGACGAAICQPPCGNGGSCIRPGHCRCPVGWQGDTCQTDVDECSTGEASCPQRCVNTVGSYWCQGWEGQSPSADGTRCLSKEGPSPVAPNPTAGVDSMAREEVYRLQARVDVLEQKLQLVLAPLHSLASRSTEHGLQDPGSLLAHSFQQLDRIDSLSEQVSFLEEHLGSCSCKKDL", "notes": "epidermal growth factor-like protein 7 (EGFL7); the same molecule is used here; source: HEK293, transiently transfected, in lysate"}}, "experiment_in_all_cases": "co-IP; Flag-tagged EGFL7 co-expressed with V5-tagged Notch ECDs or Notch1-ECD deletion mutants in HEK293; lysate immunoprecipitated with Immunosorb A overnight at 4 °C; quantitative western blot (Odyssey); n=3", "key": {"[1]": {"biological_target": "T1, V5-tagged Notch4 extracellular domain (UniProt P31695 21-1443)", "T1 construct": "Notch4, extracellular domain; source: HEK293, transiently transfected, in lysate", "T1 sequence (looked up)": "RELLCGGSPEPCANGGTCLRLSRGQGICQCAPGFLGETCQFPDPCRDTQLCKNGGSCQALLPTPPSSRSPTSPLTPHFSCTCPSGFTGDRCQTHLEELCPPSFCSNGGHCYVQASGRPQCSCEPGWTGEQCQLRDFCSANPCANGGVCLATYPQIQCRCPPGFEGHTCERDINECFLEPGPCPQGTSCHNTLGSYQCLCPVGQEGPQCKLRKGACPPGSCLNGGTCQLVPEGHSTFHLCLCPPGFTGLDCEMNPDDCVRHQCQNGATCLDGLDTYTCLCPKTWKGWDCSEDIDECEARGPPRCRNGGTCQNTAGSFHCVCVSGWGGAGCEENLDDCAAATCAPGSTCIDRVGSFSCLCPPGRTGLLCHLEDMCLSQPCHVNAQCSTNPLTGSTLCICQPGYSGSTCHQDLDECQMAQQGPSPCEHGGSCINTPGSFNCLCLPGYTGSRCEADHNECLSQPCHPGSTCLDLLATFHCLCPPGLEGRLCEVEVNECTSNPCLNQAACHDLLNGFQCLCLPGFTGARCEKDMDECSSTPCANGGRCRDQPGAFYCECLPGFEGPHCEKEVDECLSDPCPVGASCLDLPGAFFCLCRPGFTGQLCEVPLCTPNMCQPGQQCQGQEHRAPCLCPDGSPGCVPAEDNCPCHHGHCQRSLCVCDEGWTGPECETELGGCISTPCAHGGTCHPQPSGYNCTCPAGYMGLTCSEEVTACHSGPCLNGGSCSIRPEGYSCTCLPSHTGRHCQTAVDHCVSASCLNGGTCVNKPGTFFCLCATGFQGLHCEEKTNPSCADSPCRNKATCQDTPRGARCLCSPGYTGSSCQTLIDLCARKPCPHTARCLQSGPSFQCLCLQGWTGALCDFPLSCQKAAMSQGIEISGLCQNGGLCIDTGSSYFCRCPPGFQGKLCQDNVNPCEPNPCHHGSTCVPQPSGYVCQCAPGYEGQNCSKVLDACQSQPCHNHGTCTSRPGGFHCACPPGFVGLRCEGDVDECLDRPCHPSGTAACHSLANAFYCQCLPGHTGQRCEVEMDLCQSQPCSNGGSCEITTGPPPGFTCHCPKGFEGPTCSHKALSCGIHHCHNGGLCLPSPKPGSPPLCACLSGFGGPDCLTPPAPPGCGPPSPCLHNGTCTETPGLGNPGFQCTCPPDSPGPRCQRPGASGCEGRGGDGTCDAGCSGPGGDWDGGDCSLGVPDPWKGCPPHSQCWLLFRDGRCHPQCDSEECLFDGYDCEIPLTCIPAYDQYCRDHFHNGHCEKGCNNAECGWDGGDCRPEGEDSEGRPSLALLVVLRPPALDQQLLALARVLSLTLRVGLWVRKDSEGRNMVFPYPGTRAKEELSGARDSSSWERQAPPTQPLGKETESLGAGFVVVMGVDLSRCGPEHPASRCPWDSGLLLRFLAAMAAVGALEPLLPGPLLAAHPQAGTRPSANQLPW", "conditions": "partners not purified"}, "[2]": {"biological_target": "T2, V5-tagged Notch2 extracellular domain (UniProt O35516 26-1679)", "T2 construct": "Notch2, extracellular domain; source: HEK293, transiently transfected, in lysate", "T2 sequence (O35516 26-1679)": "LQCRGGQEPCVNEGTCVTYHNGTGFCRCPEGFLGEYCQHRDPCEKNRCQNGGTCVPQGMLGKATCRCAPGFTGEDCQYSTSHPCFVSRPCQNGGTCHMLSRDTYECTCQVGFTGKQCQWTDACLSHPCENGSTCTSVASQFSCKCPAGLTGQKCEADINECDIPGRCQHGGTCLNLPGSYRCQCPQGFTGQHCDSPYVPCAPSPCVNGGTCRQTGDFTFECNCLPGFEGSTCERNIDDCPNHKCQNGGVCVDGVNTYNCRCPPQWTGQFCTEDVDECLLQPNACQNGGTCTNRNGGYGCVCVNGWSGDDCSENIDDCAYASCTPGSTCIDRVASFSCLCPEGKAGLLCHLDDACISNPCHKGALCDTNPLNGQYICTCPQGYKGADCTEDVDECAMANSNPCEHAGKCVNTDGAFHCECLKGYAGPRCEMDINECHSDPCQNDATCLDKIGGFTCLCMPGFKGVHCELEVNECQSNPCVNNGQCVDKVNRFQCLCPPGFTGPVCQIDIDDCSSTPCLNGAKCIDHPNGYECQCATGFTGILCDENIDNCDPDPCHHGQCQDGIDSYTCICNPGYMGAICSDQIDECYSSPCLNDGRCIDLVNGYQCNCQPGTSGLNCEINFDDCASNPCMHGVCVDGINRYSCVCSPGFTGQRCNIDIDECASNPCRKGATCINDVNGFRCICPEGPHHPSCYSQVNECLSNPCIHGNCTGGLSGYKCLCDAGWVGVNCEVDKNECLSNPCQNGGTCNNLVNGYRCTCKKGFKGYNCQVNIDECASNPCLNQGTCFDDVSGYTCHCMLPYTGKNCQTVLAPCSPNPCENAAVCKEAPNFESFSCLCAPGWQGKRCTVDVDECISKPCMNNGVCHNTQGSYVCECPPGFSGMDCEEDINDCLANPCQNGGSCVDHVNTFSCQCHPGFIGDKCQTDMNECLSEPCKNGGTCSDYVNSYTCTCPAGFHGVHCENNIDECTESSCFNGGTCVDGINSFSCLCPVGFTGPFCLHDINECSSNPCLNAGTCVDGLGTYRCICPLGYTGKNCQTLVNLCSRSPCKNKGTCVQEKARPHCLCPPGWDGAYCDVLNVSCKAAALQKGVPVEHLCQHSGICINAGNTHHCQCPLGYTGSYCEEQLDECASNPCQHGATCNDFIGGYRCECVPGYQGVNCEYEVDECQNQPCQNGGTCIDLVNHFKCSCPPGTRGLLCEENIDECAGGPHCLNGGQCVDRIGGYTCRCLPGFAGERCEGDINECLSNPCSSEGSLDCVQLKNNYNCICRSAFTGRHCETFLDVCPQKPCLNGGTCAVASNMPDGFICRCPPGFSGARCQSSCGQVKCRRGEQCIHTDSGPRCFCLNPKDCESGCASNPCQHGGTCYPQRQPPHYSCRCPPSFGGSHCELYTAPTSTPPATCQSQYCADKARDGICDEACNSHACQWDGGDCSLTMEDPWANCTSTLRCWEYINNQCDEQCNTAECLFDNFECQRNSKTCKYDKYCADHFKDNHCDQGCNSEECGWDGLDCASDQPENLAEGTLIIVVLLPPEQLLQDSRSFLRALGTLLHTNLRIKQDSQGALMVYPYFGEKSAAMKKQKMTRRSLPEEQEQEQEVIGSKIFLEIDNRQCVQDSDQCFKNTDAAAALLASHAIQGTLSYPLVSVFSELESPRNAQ", "conditions": "partners not purified"}, "[3]": {"biological_target": "T3, V5-tagged Notch3 extracellular domain (UniProt Q61982 40-1643)", "T3 construct": "Notch3, extracellular domain; source: HEK293, transiently transfected, in lysate", "T3 sequence (Q61982 40-1643)": "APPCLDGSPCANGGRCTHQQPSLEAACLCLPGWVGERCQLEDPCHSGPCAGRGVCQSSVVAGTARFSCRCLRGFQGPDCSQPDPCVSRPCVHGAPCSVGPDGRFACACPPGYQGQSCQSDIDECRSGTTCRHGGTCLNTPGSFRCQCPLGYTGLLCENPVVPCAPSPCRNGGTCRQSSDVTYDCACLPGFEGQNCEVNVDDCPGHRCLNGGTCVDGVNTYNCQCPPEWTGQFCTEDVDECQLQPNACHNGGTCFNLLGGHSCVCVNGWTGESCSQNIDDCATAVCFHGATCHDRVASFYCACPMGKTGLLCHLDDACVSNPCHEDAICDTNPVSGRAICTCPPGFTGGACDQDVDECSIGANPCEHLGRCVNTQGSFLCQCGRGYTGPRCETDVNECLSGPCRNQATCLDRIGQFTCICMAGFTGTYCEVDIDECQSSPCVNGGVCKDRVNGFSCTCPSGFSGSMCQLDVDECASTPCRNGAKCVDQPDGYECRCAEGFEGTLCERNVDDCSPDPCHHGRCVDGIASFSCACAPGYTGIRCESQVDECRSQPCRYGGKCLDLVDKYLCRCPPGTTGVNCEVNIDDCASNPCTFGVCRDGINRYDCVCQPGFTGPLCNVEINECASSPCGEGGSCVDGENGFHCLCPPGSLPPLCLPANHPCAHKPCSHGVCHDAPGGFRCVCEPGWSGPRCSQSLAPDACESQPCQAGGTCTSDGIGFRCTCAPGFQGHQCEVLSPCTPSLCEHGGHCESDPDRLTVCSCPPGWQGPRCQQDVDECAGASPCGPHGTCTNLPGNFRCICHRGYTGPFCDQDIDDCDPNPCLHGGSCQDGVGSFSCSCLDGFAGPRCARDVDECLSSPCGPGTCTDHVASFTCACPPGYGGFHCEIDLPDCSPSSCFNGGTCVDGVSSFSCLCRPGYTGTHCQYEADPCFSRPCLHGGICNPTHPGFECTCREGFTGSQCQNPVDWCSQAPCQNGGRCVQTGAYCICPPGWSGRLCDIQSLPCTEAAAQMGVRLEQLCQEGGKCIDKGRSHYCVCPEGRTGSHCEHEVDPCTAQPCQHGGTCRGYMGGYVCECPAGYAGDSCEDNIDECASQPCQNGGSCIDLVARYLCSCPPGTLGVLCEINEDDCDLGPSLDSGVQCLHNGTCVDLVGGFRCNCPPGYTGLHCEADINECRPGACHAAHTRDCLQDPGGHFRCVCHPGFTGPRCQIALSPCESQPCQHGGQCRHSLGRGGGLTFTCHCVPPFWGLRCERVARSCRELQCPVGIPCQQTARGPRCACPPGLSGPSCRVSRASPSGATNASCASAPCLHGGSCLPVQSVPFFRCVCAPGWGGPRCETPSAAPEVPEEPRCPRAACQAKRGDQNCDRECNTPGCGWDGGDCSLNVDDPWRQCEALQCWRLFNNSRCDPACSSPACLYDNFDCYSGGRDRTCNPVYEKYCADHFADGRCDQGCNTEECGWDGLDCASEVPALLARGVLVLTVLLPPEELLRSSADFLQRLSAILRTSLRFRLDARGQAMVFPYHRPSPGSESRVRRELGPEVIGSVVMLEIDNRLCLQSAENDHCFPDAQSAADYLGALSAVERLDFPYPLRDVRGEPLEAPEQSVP", "conditions": "partners not purified"}, "[4]": {"biological_target": "V5-tagged Notch1-ECD deletion mutant Notch1-Δ11+12 (UniProt Q01705)", "sequence (Q01705 19-1725, stated change not applied)": "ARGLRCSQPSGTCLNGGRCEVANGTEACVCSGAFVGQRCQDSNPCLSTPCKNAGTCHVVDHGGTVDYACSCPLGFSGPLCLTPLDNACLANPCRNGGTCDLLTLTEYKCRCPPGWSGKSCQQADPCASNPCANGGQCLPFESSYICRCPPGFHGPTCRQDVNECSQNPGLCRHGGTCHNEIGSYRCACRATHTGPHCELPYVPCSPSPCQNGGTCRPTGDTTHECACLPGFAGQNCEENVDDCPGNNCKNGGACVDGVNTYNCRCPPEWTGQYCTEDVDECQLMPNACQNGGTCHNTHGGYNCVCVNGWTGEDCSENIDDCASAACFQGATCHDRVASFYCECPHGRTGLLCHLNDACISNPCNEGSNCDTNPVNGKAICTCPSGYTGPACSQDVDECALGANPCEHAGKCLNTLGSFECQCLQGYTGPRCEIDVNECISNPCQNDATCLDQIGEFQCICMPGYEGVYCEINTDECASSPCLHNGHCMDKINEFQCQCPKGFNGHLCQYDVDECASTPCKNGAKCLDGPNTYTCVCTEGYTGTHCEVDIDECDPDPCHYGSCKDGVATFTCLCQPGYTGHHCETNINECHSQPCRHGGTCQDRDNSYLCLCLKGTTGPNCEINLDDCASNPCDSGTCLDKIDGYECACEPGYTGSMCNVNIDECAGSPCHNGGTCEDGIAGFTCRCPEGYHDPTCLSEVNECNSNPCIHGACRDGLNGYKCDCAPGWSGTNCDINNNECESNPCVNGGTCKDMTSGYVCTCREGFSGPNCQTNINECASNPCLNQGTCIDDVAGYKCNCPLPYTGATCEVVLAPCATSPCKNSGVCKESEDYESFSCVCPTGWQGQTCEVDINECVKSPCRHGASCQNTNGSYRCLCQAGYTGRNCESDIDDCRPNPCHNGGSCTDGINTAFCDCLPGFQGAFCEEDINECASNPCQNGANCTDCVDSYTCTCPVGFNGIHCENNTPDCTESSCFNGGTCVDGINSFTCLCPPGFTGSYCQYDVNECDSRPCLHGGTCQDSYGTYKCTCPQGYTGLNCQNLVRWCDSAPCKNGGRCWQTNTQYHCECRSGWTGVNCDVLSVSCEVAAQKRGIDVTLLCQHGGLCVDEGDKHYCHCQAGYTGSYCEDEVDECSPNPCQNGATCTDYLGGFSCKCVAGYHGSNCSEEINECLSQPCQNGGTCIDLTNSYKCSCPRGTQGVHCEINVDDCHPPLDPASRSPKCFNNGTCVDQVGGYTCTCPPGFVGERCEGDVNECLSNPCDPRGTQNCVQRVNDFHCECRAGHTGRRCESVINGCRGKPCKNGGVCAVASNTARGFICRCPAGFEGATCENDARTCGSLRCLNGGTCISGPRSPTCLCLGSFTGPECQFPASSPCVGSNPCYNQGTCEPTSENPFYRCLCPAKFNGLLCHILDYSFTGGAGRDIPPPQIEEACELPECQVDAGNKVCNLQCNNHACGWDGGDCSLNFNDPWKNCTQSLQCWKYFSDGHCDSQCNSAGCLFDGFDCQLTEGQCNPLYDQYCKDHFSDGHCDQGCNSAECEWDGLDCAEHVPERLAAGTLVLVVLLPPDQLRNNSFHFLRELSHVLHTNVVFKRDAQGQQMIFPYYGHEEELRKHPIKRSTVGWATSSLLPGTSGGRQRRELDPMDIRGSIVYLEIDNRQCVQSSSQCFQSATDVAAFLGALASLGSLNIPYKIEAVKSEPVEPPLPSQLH"}, "[5]": {"biological_target": "V5-tagged Notch1-ECD deletion mutant Notch1-Δ5–10 (UniProt Q01705)", "sequence (Q01705 19-1725, stated change not applied)": "as above"}, "[6]": {"biological_target": "V5-tagged Notch1-ECD deletion mutant Notch1-Δ8 (UniProt Q01705)", "sequence (Q01705 19-1725, stated change not applied)": "as above"}}, "data": [{"binder": "B1", "values": [{"measurement": "binding relative to Notch1-ECD", "setting": "[1]", "value": "~35", "unit": "%"}, {"measurement": "binding relative to Notch1-ECD", "setting": "[2]", "value": "~76", "unit": "%"}, {"measurement": "binding relative to Notch1-ECD", "setting": "[3]", "value": "~41", "unit": "%"}, {"measurement": "change in binding relative to Notch1-ECD", "setting": "[4]", "value": -26, "unit": "%"}, {"measurement": "change in binding relative to Notch1-ECD", "setting": "[5]", "value": -18, "unit": "%"}, {"measurement": "change in binding relative to Notch1-ECD", "setting": "[6]", "value": -28, "unit": "%"}]}]}
